Measured values from article PMC3760765, “A Meiosis-Specific Form of the APC/C Promotes the Oocyte-to-Embryo Transition by Decreasing Levels of the Polo Kinase Inhibitor Matrimony” (PLoS Biology, 2013).

B1: 6×Myc-Cortex (full length), in vitro translated (natural protein, Drosophila melanogaster, UniProt Q960N3 1-483, looked up)
chain: MFVEMSVCDSPNKNSKLDKKSLTPFKKVRRKNWKQEAAYKSDTSKGQEVSYVGERFIPNRFERENIEFNLKYIGKRKERDILETGVTLTASYWRQSGFISNINRTFGIGERRLFQFSSQQGTRSRVVDNDSADSDWPCNPRARPYAIQNATHEMPGICSPVDYNMMDWSSGGMVAMSSGQDVMLWRNLDESTMVFSVESPTSLKYSPDGKHLAIGCMDRNYPVLDLWEVRSPTEFLVSYRKLFFKSMGYISCIEWSHDGKEVICGTQCGVIIVLAMPTLNTLMQLREHRHTVKKMKFAPTHKYFASSDTDGKIFIFDAVLKVRLLKLDGRSIVFDWHPWTGEDLAVAERSPASIFIFNIPRRQFVASYRRRDDRIVIKTLTYSKITGELLVNVIRRDDADLAVCEILVLASLNRVVDLMSHQDRGTLFLMWNPDGTKIATGGLDDTFSLWNFFPTYKREAILRKQEQKAKDKCSSLSLYKGIR
notes: 6×myc-cort cDNA cloned into pOT2; also called Myc-tagged Cort; source: in vitro translated (TnT T7 Coupled Reticulocyte Lysate System, rabbit reticulocyte lysate)
B2: 6×Myc-Fzy/Cdc20, in vitro translated (natural protein, Drosophila melanogaster, UniProt Q24044 1-526, looked up)
chain: MSQFNFVSDLQNALIMDGETRGPAPRWKKKLEASLNGSVNTTRSVLSVSYNTSFSGVQAPTKTPGKSSEGKTKKSNTTPSKTPGGGDRFIPNRAATNFELAHFLVNKDSGDKSDEENDKATSSNSNESNVQASAHKGDRQKLISEVAQVGDSKGGRILCYQNKAPAAPETHNNPLKVVYSIKTPISTKSGSRYIPTTSERILDAPDFINDYYLNLMDWSADNIVAVALGSCVYLWNAQTGNIEQLTEFEEGDYAGSLSWIQEGQILAIGNSTGAVELWDCSKVKRLRVMDGHSARVGSLAWNSFLVSSGSRDGTIVHHDVRAREHKLSTLSGHTQEVCGLKWSTDFKYLASGGNDNLVNVWSAASGGVGTATDPLHKFNDHQAAVRALAWCPWQPSTLASGGGTADRCIKFWNVNNGTLMKSVDSKSQVCSLLFSRHYKELISAHGFANNQLTIWKYPTMVKQADLTGHTSRVLQMAMSPDGSTVISAGADETLRLWNCFAPDPLASKKAVSTSKGKQSVFRQSIR
notes: 6×myc-fzy/cdc20 cDNA cloned into pOT2; also called Myc-tagged Fzy/Cdc20; Fizzy; source: in vitro translated (TnT T7 Coupled Reticulocyte Lysate System, rabbit reticulocyte lysate)

Key:
[1] = molecular target: T1, GST-tagged Mtrm (Matrimony) (Drosophila melanogaster, UniProt Q23973 1-217); test: pull-down; purified GST-tagged protein on beads incubated with 5 µl in vitro translation reaction (reticulocyte lysate) in 500 µl IP buffer, 2 h at 4°C; 3 washes; Western blot with anti-Myc 9E10; details: one partner purified
T1 construct: mtrm cDNA LD47919 cloned into pGEX6p-1; also called GST-Mtrm; source: expressed and purified from bacteria
T1 sequence (looked up): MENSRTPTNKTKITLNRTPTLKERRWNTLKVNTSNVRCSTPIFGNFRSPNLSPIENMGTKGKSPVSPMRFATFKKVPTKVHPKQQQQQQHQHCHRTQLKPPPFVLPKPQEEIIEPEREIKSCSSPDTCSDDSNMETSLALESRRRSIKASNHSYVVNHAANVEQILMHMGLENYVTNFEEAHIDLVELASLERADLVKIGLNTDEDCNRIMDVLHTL

[2] = molecular target: T2, GST-CycA (Cyclin A) (UniProt P14785 1-491); test: as above; details: one partner purified
T2 construct: Cyclin A; construct not described in the methods
T2 sequence (looked up): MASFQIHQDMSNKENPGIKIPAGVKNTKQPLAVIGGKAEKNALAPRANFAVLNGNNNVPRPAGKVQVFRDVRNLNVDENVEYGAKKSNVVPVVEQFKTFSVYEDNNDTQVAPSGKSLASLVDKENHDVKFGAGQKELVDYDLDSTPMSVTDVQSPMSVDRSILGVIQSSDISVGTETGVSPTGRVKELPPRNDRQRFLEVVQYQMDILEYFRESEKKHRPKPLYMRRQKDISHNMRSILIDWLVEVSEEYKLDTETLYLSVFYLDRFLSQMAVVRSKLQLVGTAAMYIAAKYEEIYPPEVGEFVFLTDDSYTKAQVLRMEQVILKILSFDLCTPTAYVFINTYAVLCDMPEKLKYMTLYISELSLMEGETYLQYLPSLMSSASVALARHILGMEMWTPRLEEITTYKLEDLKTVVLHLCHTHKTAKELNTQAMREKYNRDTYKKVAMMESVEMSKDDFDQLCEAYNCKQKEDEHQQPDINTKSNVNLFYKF

Row | Binder | fold binding to GST-Mtrm against 6×Myc-CortΔWD40 [1] [fold] | fold binding to GST-CycA against binding to GST-Mtrm [2] [fold]
1 | B1 | 5.8 | 
2 | B2 |  | 155
